# Experimental data from patent US20260242478A1 (published 2026).
# Where no end group is shown, it is not given here.
# Tests used:
# PSMA Fab (006 PSMA Fab) [1] = biological target: T1, PSMA Fab (006 PSMA Fab) (biotinylated (site not stated)); experiment: clonal phage ELISA on biotinylated PSMA Fab captured on neutravidin, anti-M13-HRP detection;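 also: crude clonal phage supernatants added to wells preincubated with PSMA antigen in blocking buffer or with blocking buffer alone, brief binding period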
# T1 construct: also called Anti-PSMA Fab; anti-PSMA Fab
# PSMA Fab (006 PSMA Fab) [2] = biological target: T1, PSMA Fab (006 PSMA Fab); experiment: clonal phage ELISA on captured PSMA Fab, wells pre-incubated with PSMA antigen as competitor
# Procedure: (§1) Clonal phage were harvested as crude supernatants and screened via standard ELISAs. […] Prior to the addition of clonal phage. wells were incubated with blocking buffer and PSMA antigen or blocking buffer alone. Without washing or aspirating, clonal phage supernatants were then added to the wells and incubated for a short time. Wells were then washed followed by detection of bound phage using a horse radish conjugated anti-M13 antibody.
# PSMA Fab (006 PSMA Fab) [3] = biological target: T2, PSMA Fab (006 PSMA Fab); experiment: phage ELISA: clonal phage supernatant on biotinylated PSMA Fab captured on neutravidin plate, blocking buffer alone; anti-M13 HRP detection;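 also: crude clonal phage supernatants added to wells preincubated with blocking buffer, incubated briefly, bound phage detected with a horseradish-conjugated anti-M13 antibody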
# T2 construct: also called Anti-PSMA Fab
# Procedure: as §1
# PSMA Fab (006 PSMA Fab) [4] = biological target: T2, PSMA Fab (006 PSMA Fab); experiment: phage ELISA: clonal phage supernatant on biotinylated PSMA Fab captured on neutravidin plate, wells pre-incubated with PSMA antigen as competitor; anti-M13 HRP detection
# Procedure: as §1
# PSMA Fab (006 PSMA Fab) [5] = biological target: T3, PSMA Fab (006 PSMA Fab) (biotinylated (site not stated)); experiment: clonal phage ELISA on captured PSMA Fab pre-incubated with PSMA antigen as competitor;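 also: crude clonal phage supernatants added to wells without washing away the PSMA competitor, bound phage detected by HRP-conjugated anti-M13 antibody, reference wells received blocking buffer only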
# T3 construct: In the clonal phage ELISA the biotinylated PSMA Fab was captured on neutravidin coated plates; also called Anti-PSMA Fab
# PSMA Fab (006 PSMA Fab) [6] = biological target: T3, PSMA Fab (006 PSMA Fab); experiment: clonal phage ELISA on biotinylated PSMA Fab captured on neutravidin, anti-M13 HRP detection, no PSMA
# Procedure: as §1
Binder,phage binding ELISA signal (PSMA Fab (006 PSMA Fab) [3]),phage binding ELISA signal (PSMA Fab (006 PSMA Fab) [4]),"Phage binding ELISA signal, Anti-PSMA Fab with PSMA antigen (PSMA Fab (006 PSMA Fab) [5])","Phage binding ELISA signal, Anti-PSMA Fab (PSMA Fab (006 PSMA Fab) [6])",also measured
"TASMCKPPWMCLGF (cysteine pairing not given here; also: fused to pIII of bacteriophage, not shown: fused to pIII of the bacteriophage) [Phage-3339]",,,,,"Phage binding ELISA signal, Anti-PSMA Fab (PSMA Fab (006 PSMA Fab) [1]): 1.83; phage binding ELISA signal (Anti-PSMA Fab with PSMA) (PSMA Fab (006 PSMA Fab) [2]): 0.0684"
VIIKCEPRWMCEGF (tested as crude clonal phage supernatant) [Phage-3358 (Peptide-180 library peptide)],1.82,0.068,,,
EDVLCKPLWMCFGF (tested as crude clonal phage supernatant) [Phage-3363 (Peptide-180 library peptide)],1.82,0.0901,,,
PHAICKPAWMCVGL [Phage-3371],,,0.0913,1.81,
"GELKCIPPWMCEGF (cysteine pairing not given here; also: fused to pIII of bacteriophage, not shown: fused to pIII of the bacteriophage) [Phage-3345]",,,,,"Phage binding ELISA signal, Anti-PSMA Fab (PSMA Fab (006 PSMA Fab) [1]): 1.83; phage binding ELISA signal (Anti-PSMA Fab with PSMA) (PSMA Fab (006 PSMA Fab) [2]): 0.0808"
DTIQCKPAWMCVGF (tested as crude clonal phage supernatant) [Phage-3357 (Peptide-180 library peptide)],1.82,0.102,,,
HDLSCVPRWMCDGF (tested as crude clonal phage supernatant) [Phage-3362 (Peptide-180 library peptide)],1.82,0.0671,,,
"IGLLCAPKWMCEGF (cysteine pairing not given here; also: fused to pIII of bacteriophage, tested as crude clonal phage supernatant) [Phage-3355 (Peptide-180 library peptide)]",1.82,0.0676,,,
ESNFCVPAWMCTGF (cysteine pairing not given here; also: fused to pIII of bacteriophage) [Phage-3364],,,0.073,1.82,
"SEYRCVPNWMCSGF (cysteine pairing not given here; also: fused to pIII of bacteriophage, not shown: fused to pIII of the bacteriophage) [Phage-3346]",,,,,"Phage binding ELISA signal, Anti-PSMA Fab (PSMA Fab (006 PSMA Fab) [1]): 1.83; phage binding ELISA signal (Anti-PSMA Fab with PSMA) (PSMA Fab (006 PSMA Fab) [2]): 0.0791"
DFAMCRPAWMCGGF (cysteine pairing not given here; also: fused to pIII of bacteriophage) [Phage-3372],,,0.0683,1.81,
"MEPVCKPKWMCQGF (cysteine pairing not given here; also: fused to pIII of bacteriophage, not shown: fused to pIII of the bacteriophage) [Phage-3342]",,,,,"Phage binding ELISA signal, Anti-PSMA Fab (PSMA Fab (006 PSMA Fab) [1]): 1.83; phage binding ELISA signal (Anti-PSMA Fab with PSMA) (PSMA Fab (006 PSMA Fab) [2]): 0.07"
HTPICVPVWMCAGF (cysteine pairing not given here; also: fused to pIII of bacteriophage) [Phage-3369],,,0.0746,1.82,
EYIRCVPSWMCLDL [Phage-3376],,,0.0615,1.81,
WMPYCVPHWMCDGF (tested as crude clonal phage supernatant) [Phage-3361 (Peptide-180 library peptide)],1.82,0.119,,,
FEMLCRPIWMCTGF [Phage-3365],,,0.14,1.82,
"LSWHCIPEWMCAGF (cysteine pairing not given here; also: fused to pIII of bacteriophage, tested as crude clonal phage supernatant) [Phage-3356 (Peptide-180 library peptide)]",1.82,0.07,,,
QEIYCVPEWMCSWF [Phage-3375],,,0.0642,1.81,
VESWCIPAWMCTGF (tested as crude clonal phage supernatant) [Phage-3359 (Peptide-180 library peptide)],1.82,0.0794,,,
IAVMCKPEWMCVGF [Phage-3368],,,0.0964,1.82,

Binder,phage binding ELISA signal (PSMA Fab (006 PSMA Fab) [3]),phage binding ELISA signal (PSMA Fab (006 PSMA Fab) [4]),"Phage binding ELISA signal, Anti-PSMA Fab with PSMA antigen (PSMA Fab (006 PSMA Fab) [5])","Phage binding ELISA signal, Anti-PSMA Fab (PSMA Fab (006 PSMA Fab) [6])",also measured
YEQRCVPVWMCEGF (not shown: fused to pIII of the bacteriophage) [Phage-3348],,,,,"Phage binding ELISA signal, Anti-PSMA Fab (PSMA Fab (006 PSMA Fab) [1]): 1.82; phage binding ELISA signal (Anti-PSMA Fab with PSMA) (PSMA Fab (006 PSMA Fab) [2]): 0.0675"
GQMYCKPSWMCNGF (tested as crude clonal phage supernatant) [Phage-3354 (Peptide-180 library peptide)],1.82,0.0788,,,
DHVMCKPKWMCEGF [Phage-3367],,,0.0947,1.82,
IDKMCVPSWMCWGF [Phage-3374],,,0.0876,1.81,
"HIKECTPRWMCVGF (cysteine pairing not given here; also: fused to pIII of bacteriophage, not shown: fused to pIII of the bacteriophage) [Phage-3349]",,,,,"Phage binding ELISA signal, Anti-PSMA Fab (PSMA Fab (006 PSMA Fab) [1]): 1.82; phage binding ELISA signal (Anti-PSMA Fab with PSMA) (PSMA Fab (006 PSMA Fab) [2]): 0.078"
"QSPMCKPDWMCLGF (cysteine pairing not given here; also: fused to pIII of bacteriophage, not shown: fused to pIII of the bacteriophage) [Phage-3347]",,,,,"Phage binding ELISA signal, Anti-PSMA Fab (PSMA Fab (006 PSMA Fab) [1]): 1.83; phage binding ELISA signal (Anti-PSMA Fab with PSMA) (PSMA Fab (006 PSMA Fab) [2]): 0.0728"
LSIKCVPDWMCTGF [Phage-3370],,,0.09,1.81,
FPVRCVPEWMCSGF (tested as crude clonal phage supernatant) [Phage-3360 (Peptide-180 library peptide)],1.82,0.0748,,,
VDHVCRPIWMCIGF (tested as crude clonal phage supernatant) [Phage-3352 (Peptide-180 library peptide)],1.82,0.0934,,,
"QYPVCKPAWMCEGF (cysteine pairing not given here; also: fused to pIII of bacteriophage, not shown: fused to pIII of the bacteriophage) [Phage-3341]",,,,,"Phage binding ELISA signal, Anti-PSMA Fab (PSMA Fab (006 PSMA Fab) [1]): 1.83; phage binding ELISA signal (Anti-PSMA Fab with PSMA) (PSMA Fab (006 PSMA Fab) [2]): 0.0971"
QLPMCVPRWMCDGW [Phage-3366],,,0.129,1.82,
HDLRCVPEWMCYGL [Phage-3377],,,0.0734,1.81,
"GDIRCVPEWMCSGL (cysteine pairing not given here; also: fused to pIII of bacteriophage, tested as crude clonal phage supernatant) [Phage-3350 (Peptide-180 library peptide)]",1.82,0.0749,,,
"MHFHCKPAWMCQGL (cysteine pairing not given here; also: fused to pIII of bacteriophage, not shown: fused to pIII of the bacteriophage) [Phage-3340]",,,,,"Phage binding ELISA signal, Anti-PSMA Fab (PSMA Fab (006 PSMA Fab) [1]): 1.83; phage binding ELISA signal (Anti-PSMA Fab with PSMA) (PSMA Fab (006 PSMA Fab) [2]): 0.0998"
"MERLCMPSWMCGGF (cysteine pairing not given here; also: fused to pIII of bacteriophage, not shown: fused to pIII of the bacteriophage) [Phage-3344]",,,,,"Phage binding ELISA signal, Anti-PSMA Fab (PSMA Fab (006 PSMA Fab) [1]): 1.83; phage binding ELISA signal (Anti-PSMA Fab with PSMA) (PSMA Fab (006 PSMA Fab) [2]): 0.0822"
SEHFCRPAWMCTGF (tested as crude clonal phage supernatant) [Phage-3353 (Peptide-180 library peptide)],1.82,0.0801,,,
GHPICVPSWMCEGF [Phage-3373],,,0.0862,1.81,
"TAPMCKPEWMCVAL (cysteine pairing not given here; also: fused to pIII of bacteriophage, not shown: fused to pIII of the bacteriophage) [Phage-3343]",,,,,"Phage binding ELISA signal, Anti-PSMA Fab (PSMA Fab (006 PSMA Fab) [1]): 1.83; phage binding ELISA signal (Anti-PSMA Fab with PSMA) (PSMA Fab (006 PSMA Fab) [2]): 0.0952"
VRPMCEPVWMCMGF (tested as crude clonal phage supernatant) [Phage-3351 (Peptide-180 library peptide)],1.82,0.0972,,,
